Results reported in the DeepSol protein solubility set.

Assay: soluble on expression in E. coli; label from the status in PepcDB or PDB records

| Sequence | soluble on expression in E. coli |
| --- | --- |
| SEVERKIVSLEALYIVYDADGTVAGELLYLLRKWLGKGHCAACDITHGPRKVKPEWTILQKTGWLGVPLFNIHRDEMEPKLRSAVSCALPCVAALVDNGDYVLLLQPEDLESCKGQVSKLQEKIVEALKDFGFQVNESFTSVVTSDLSDTCPSTLDREKEEDDAVVPF | soluble |
| SFAAIASGNPLQLSVEVPNSNGLQHTIVLSRTKPKLYSHITLFILPNVTFPQDYIATVYFKLSPQEEFKLFGYLSSEKPSAIFKVQIPSSKKDAGDTSDGLGEIDMDVDDGSGAADPFTDTNGSSSNNISELIIGISIEPREQGMMKLEEWKASMNAEAQKNNSLILSRPNLGIIRNITTAGQLAQVYPSLTQELAAKIVQHAYNYLSGFLDAQGNVPIKRFDTWWDKFRNRLANDGTFLDEVTKN | soluble |
| SGCIGSRTVGNEVIAVDWKGLKDVDQINMDSTSSLHGSSLHRPSTEQTRTDFSWDGINLSMEDTTSILPKLKRNSNAYGIGALAKSSFSGISRSMKDHVTKPTAMGQGRVAHMIEWQGWGKTPAVQPQHSHESVRRDTDAYSDLSDGEKEARFLAGVMEQFAISEATLMAWSSMDGEDMSVNSTQEPLGCNYSDNYQELMDSQDALAQAPMDGWPHSYVSQGMYCLGSSDAWEASDQSLIASPATGSYLGPAFDDSQPSLHEMGPSQPASGYSALEPPPLLGGDTDWAPGVGAVDLARGPAEEEKRPLAPEEGEDAGCQDLESLSPREDPEMSTTLSRKVSDVTSSGVQSFDEEEGEANN | soluble |
| SGGLLIASAHFGAYVCGTDIDYNTVHGLGKASRKNQKWRGPDENIRANLRQYGLEKFYLDVLVSDASKPSWRKGTYFDAIITDPPYGIRESTRRSGSQKDIPKGIEKCPESHVPVSLSYHLSDMFFDLLNFAAETLVLGGRLVYWLPVYTPEYTEEMVPWHPCLRLISNCEQKLSSHTARRLITMEKVKEFENRDKYSHLLSDHFLPYQGHNSFREKYFSGVTKRIAKEEKCSHE | not soluble |
| SGHPPLEFSDCYLDSPDFRERLKCYEQELERTNKFIKDVIKDGNALISAMRNYSSAVQKFSQTLQSFQFDFIGDTLTDDEINIAESFKEFAELLNEVENERMMMVHNASDLLIKPLENFRKEQIGFTKERKKKFEKDGERFYSLLDRHLHLSSKKKESQLQEADLQVDKERHNFFESSLDYVYQIQEVQESKKFNIVEPVLAFLHSLFISNSLTVELTQDFLPYKQQLQLSLQNTRNHFSSTREEMEELKKRMKEAPQTCKLPGQPTIEGYLYTQEKCVWGHRGIHWVSISQELLPLVGCEFWAPLLFIDP | soluble |
| SGIIKMAIRFDRRAYPPQITPKMCLLEWCRREKLPQPVYETVQRTIDRMFCSVVTVAEQKYQSTLWDKSKKLAEQTAAIVCLRSQGLPEGRLGEESPSLNKRKREAPDQDPGGPR | soluble |
| SGTNDAEDCCLSVTQKPIPGYIVRNFHYLLIKDGCRVPAVVFTTLRGRQLCAPPDQPWVERIIQRLQRTSAKMKRRSS | soluble |
| SHPNQNDKIVVGLDIGTTKICAIVGRKNEYGKLEILGIGKAVSEGVIRGMVTNINLTVTAIEKAIKEASDQSGIDIGVVNVGIAGQHIKSSVHHHGINRPGGDEEISVDDVNRLTADMYRTVMPFGN | not soluble |
| SIPYQEWHSQLQSLYDSQIFHNWALCQDVHLNDEKDGLLLRLIPTRQLQKNTERIENKLLNHIELYLTYSKVYNEPLLLLRIWEEKSIDGIPMTKLMLPTDIESLLDVQGKFQLGLDTIINLEGSVWYSFHPCDTSCIVGDQAEFMSTYLRRWVSIFIFSWLGYEDS | soluble |
| SISPAQIAEALQGRGWDAEIVTDASMAGQLVDVRPEGILKCVDGRGSDNTRMGGPKMPGGIYAIAHNRGVTSIEGLKQITKEVASKGHLPSVHGDHSSDMLGCGFFKLWVTGRFDDMGYPRPQFDADQGANAVKDAGGIIEMHHGSHTEKVVYINLLANKTLEPNENDQRFIVDGWAADKFGLDVPKFLIAAAATVEMLGGPKNAKIVVP | soluble |
| SKELKEIKSELLNYTDDTLPAMERVDAIRDDLSHWRRSQFATYTYKDADKIRNKIASNIREREKISKELEAYGSTIWPGEEQQTFQRLMRQWKQYLVTMDQYNESMLAGNKTEALAVLSNSLNDFEAVDSDLNELIRLLKVAMDSNKNHILSSVN | not soluble |
| SKFDKLNKAYEQIKSDYYQKTDDDKLVDGAIKGMIQSLDDPYSTYMDQEQAKSFDETISASFEGIGAQVEEKDGEILIVSPIKGSPAEKAGIKPRDQIIKVNGKSVKGMNVNEAVALIRGKKGTKVKLELNRAGVGNIDLSIKRDTIPVETVYSEMKDNNIGEIQITSFSETTAKELTDAIDSLEKKGAKGYILDLRGNPGGLMEQAITMSNLFIDKGKNIMQVEYKNGSKEVMKAEKERKVTKPTVVLVNDGTASAAEIMAAALHESSNVPLIGETTFGKGTVQTAKEYDDGSTVKLTVAKWLTADGEWIHKKGIKPQVKAELPDYAKLPYLDADKTYKSGDTGTNVKVAQKMLKALGYKVKVNSMYDQDFVSVVKQFQKKEKLNETGILTGDTTTKLMIELQKKLSDNDTQMEKAIETLKK | not soluble |
| SKIVKIIGREIIDSRGNPTVEAEVHLEGGFVGMAAAPSGASTGSREALELRDGDKSRFLGKGVTKAVAAVNGPIAQALIGKDAKDQAGIDKIMIDLDGTENKSKFGANAILAVSLANAKAAAAAKGMPLYEHIAELNGTPGKYSMPVPMMNIINGGEHADNNVDIQEFMIQPVGAKTVKEAIRMGSEVFHHLAKVLKAKGMNTAVGDEGGYAPNLGSNAEALAVIAEAVKAAGYELGKDITLAMDCAASEFYKDGKYVLAGEGNKAFTSEEFTHFLEELTKQYPIVSIEDGLDESDWDGFAYQTKVLGDKIQLVGDDLFVTNTKILKEGIEKGIANSILIKFNQIGSLTETLAAIKMAKDAGYTAVISHRSGETEDATIADLAVGTAAGQIKTGSMSRSDRVAKYNQLIRIEEALGEKAPYNGRKEIKGQA | soluble |
| SLALSSPILKEILIEAPSYAPNSFTFDSTNKGFYTSVQDGRVMKYEGPNSGFVDFAYASPYWNKAFCENSTDAEKRPLCGRTYDISYNLQNNQMYIVDCYYHLSVVGSEGGHATQLATSVDGVPFKWLYAVTVDQRTGIVYFTDVSTLYDDRGVQQIMDTSDKTGRLMKYDPSTKETTLLMKELHVPGGAEVSADSSFVLVAEFLSHQIVKYWLEGPKKGTAEVLVKIPNPGNIKRNADGHFWVSSSEELDGNMHGRVDPKGIKFDEFGNILEVIPLPPPFAGEHFEQIQEHDGLLYIGTLFHGSVGILVYDKKGNSFVSSH | soluble |
| SLDSIELMAKIHASARWSEAALQILADETRRILKHEAGTRAGEDPEQLHQMRVGIRRLRSALRLFEPALKLPKPARRRSLSPLAAVLGSVRDLDVQMEMLRERYLGALPEGEQQALERLLAHLESLRTQARSAMLRYLDGLDYEQFKSAYTEFLESPKFRRGADESLYHLLPAFLREALSTLWAHPGWEEPDVETMHDLRIAVKRVRYNLEFFLGCYGKAVRSLHGELKRIQEELGIIHDCDVLLGQLHTEPLGPATPWQQPFSRLTALVRNERRNAVRRFRRLKTRLLSEDMRNSLAVWVSWPGTADD | soluble |
| SLDTEKDCIKAVAAKDGITVIKVKSSNKLLSWHFMRKLFEIFEFYQEPVDMVATSEVGVSLTIDNDKNLPDIVRALSDIGDVTVDKDMVIICIVGDMEWDNVGFEARIINALKGVPVRMISYGGSNYNVSVLVKAEDKKKALIALSNKLFNSRATKA | soluble |
| SLEIRRSDAPRLVDLVRRAQASVNRLATEREALTTRIDSVHGRSVDTALAAMQRRSAKLAGVAAMNPVHGPGLVVTLQDAQRDANGRFPRDASPDDLVVHQQDIEAVLNALWNAGAEAIQMQDQRIIAMSIARCVGNTLLLNGRTYSPPYTIAAIGDAAAMQAALAAAPLVTLYKQYVVRFGLGYCEEVHPDLQIVGYADPVRMHFAQPAGPLDY | soluble |
| SLFPHISPCEVRVLMLLYSSKKKIFMGLIPYDQSGFVSAIRQVITTRKQAVGPGGVNSGPVQIVNNKFLAWSGVMEWQEPRPEPNSRSKRWLPSHVYVNQGEILRTEQWPRKLYMQLIPQQLLTTLVPLFRNSRLVQFHFTKDLETLKSLCRIMDNGFAGCVHFSYKASCEIRVLMLLYSSEKKIFIGLIPHDQGNFVNGIRRVIANQQQVLQRNLEQEQQQRGMGG | soluble |
| SLGLKAAQKTLFPLRSIDDVVRLFAAELGREEPDLVLLSLVLGFVEHFLAVNRVIPTNVPELTFQPSPAPDPPGGLTYFPVADLSIIAALYARFTAQIRGAVDLSLYPREGGVSSRELVKKVSDVIWNSLSRSYFKDRAHIQSLFSFITGWSPVGTKLDSSGVAFAVVGACQALGLRDVHLALSEDHAWVVFGPNGEQTAEVTWHGKGNEDRRGQTVNAGVAERSWLYLKGSYMRCDRKMEVAFMVCAINPSIDLHTDSLELLQLQQKLLWLLYDLGHLERYPMALGNLADLEELEPTPGRPDPLTLYHKGIASAKTYYRDEHIYPYMYLAGYHCRNRNVREALQAWADTATVIQDYNYCREDEEIYKEFFEVANDVIPNLLKEAASLLEAGEERPGEQSQGTQSQGSALQDPECFAHLLRFYDGICKWEEGSPTPVLHVGWATFLVQSLGRFEGQVRQKVRIVSREAEAAEAEEPWGEEAREGRRRGPRRESKPEEPPPPKKPALDKGLGTGQGAVSGPPRKPPGTVAGTARGPEGGSTAQVPAPAASPPPEGPVLTFQSEKMKGMKELLVATKINSSAIKLQLTAQSQVQMKKQKVSTPSDYTLSFLKRQRKG | soluble |
| SLGVYKARRFSQSTKKLGIHDKVLMAAAEEVMQGIWEADLGSGVIKKRLPLQQGKSGGARTIIFFKSANHVFFYDGWSKSGLSSKGSKEIEDDELAAYKKMANAFLAFSNKQIEDLIETGFLIEVKNER | not soluble |
| SLKPFQDKNTFFYKSPSYICDSEISVACKKGKKVDFPNQDDFTIIQTNDWILIMVFDGHGPSGHDISNFVHVVLPLLFSYNIEKIYENPVRTMKTLFYMINCYLVNYSYCINNNINPININFIDYNLSGTTCTIILYNFITKKIYSAHTGDSRAVMGKQNPQTNKFSAYNITEDHKPSLKLEKDRILAFGGEVKKLHGDVAYRVFVKDEMYPGLAMSRAIGDITSSFIGVTCEPTIKILDKLEEDKFIIVATDGIWEFISSEECVQMVSKKKKKKVHIAMEEIIKESWRRWARIDTVDDMTLVILYF | not soluble |
| SLKPIMYNEKRGVSVMDIKLQQTQILKPQLTQELKQAITLLGYNSAELAGYIDELSLENPLIERKETDTPPLSYHKTNKNRMKEQDVSQQIRLTRKTLQDSLKQQAIDMKLSDAEKKIFNYLIYSLDSNGYLKEDIQAAADHVSASLEETEAVLAKLQSLEPAGIGARSLQECILLQLRRLPERNEQAEWIAGAYFELFARKNWKALTLQTGIPLKDIQDIFDMISALDPRPGLRYAHEEPGFYVEPDIFNTVKNGIIQARLNSRSFPDIQLHAHYRPMLSAAGCRDVQQVPF | soluble |
| SLLPFKENRGLIFLDPPFEVKNEFQKLLEALKKIKLRVLNNTVLIWYPIKDLSLVCDVYHNYKNIGFKETMIIEYELLNSDKNMVKCGLMLINPPNIRGELEKLTEYLSGTLNLKFTYIYL | not soluble |
| SLLPQAVTQFEELVGMAEALLKGGGTMSTSASTLWRATNNSSPDSFASTCSNSNSNSSSPVSLKPEEEHQTDEKQFQIEKWQIARCNKSKPQKFINDLMQVLYTNEYMATHSLTGAKSSTSRDKAVKPAMNQNEVQEIIGVTKQLFPNTDDVSIRRMIGQKLNNCTKKPNLSKNLNSQDIK | soluble |
